B1: bovine mitochondrial F1-ATPase γ subunit (γA99C, γS191C) (natural protein)
chain: ATLKDITRRLKSIKNIQKITKSMKMVAAAKYARAERELKPARVYGVGSLALYEKADIKTPEDKKKHLIIGVSSDRGLCGAIHSSVAKQMKSEAANLAACGKEVKIIGVGDKIRSILHRTHSDQFLVTFKEVGRRPPTFGDASVIALELLNSGYEFDEGSIIFNRFRSVISYKTEEKPIFSLDTISSAESMCIYDDIDADVLRNYQEYSLANIIYYSLKESTTSEQSARMTAMDNASKNASEMIDKLTLTFNRTRQAVITKELIEIISGAAALD
B2: bovine mitochondrial F1-ATPase ε subunit (natural protein)
chain: MVAYWRQAGLSYIRYSQICAKAVRDALKTEFKANAMKTSGSTIKIVKVKKE

Target: bovine mitochondrial F1-ATPase β subunit (His-tagged) (bovine, UniProt P00829 47-528)
Experiment: dilution and ultrafiltration

Chain of bovine mitochondrial F1-ATPase β subunit (His-tagged) (P00829 47-528): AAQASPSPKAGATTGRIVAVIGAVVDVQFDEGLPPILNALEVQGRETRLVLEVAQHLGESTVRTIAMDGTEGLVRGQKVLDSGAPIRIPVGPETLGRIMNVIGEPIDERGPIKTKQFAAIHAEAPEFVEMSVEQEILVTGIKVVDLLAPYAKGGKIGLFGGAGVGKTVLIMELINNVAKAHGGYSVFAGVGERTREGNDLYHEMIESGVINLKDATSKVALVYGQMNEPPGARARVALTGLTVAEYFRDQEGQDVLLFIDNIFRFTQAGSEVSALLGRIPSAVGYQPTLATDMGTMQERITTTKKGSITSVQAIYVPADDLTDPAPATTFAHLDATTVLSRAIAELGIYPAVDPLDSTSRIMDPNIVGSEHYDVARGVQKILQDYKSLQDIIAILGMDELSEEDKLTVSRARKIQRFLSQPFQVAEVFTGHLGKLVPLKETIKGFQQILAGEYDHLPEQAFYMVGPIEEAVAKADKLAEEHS

Row | Binder | binding result
1 | B1 | binds
2 | B2 | binds
